Earlier results on one substance are cited in patent US8168409B2, “Compositions and methods relating to anti-IGF-1 receptor antibodies” (Amgen Inc., priority 2004, dated 2012).

The data set has as its target IGF-1R (Homo sapiens, UniProt P08069). The settings on record: biphasic binding; high affinity component.

pKd: −log10 of the molar value.

A word on the pKd: it is −log10 of the Kd, conventionally taken in molar units. “IGF-2: insulin-like growth factor 2, ligand of IGF-1R”: the negative logarithm of the Kd (pKd) was approximately 9.70.
